Measured values published in patent publication US20050054106.

Target: T1, PhiC31 integrase (Streptomyces phage PhiC31) (UniProt Q9T221)
T1 sequence: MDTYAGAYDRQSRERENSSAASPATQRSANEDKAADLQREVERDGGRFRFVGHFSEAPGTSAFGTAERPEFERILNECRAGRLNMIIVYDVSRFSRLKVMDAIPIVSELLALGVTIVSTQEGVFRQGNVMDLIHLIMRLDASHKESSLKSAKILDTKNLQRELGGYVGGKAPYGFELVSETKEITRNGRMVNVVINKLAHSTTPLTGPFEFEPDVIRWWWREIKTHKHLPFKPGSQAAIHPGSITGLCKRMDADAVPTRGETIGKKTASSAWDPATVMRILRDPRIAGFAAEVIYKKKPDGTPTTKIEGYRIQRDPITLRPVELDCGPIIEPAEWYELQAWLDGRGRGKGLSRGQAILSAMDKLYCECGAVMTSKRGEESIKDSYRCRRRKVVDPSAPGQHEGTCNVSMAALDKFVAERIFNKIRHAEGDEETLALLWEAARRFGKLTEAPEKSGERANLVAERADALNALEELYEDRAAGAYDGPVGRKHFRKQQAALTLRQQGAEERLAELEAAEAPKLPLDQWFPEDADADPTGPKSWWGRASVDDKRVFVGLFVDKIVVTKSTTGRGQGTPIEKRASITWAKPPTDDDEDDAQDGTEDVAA
Assay: cell_activity
Conditions: S. pombe FY527attP, pLT45+pLT43; 63 without integrase, 120 with thiamine repression

attB (pLT45, 500 bp fragment) ; attP 84 bp (pLT44)
activity (transformants per 10^7 cells): 1100
